B1: Example 12-hydrolyzed (human), n=4 (antibody, human IgG1, kappa, L234A L235A, V domains shown)
VH: EVQLVESGGGLVKPGGSLRLSCAASGFTFSDYGMNWVRQAPGKGLEWIAYISSGRGNIYYADTVKGRFTISRDNAKNSLYLQMNSLRAEDTAVYYCARSWGYFDVWGQGTTVTVSS
VL: DIVMTQSPDSLAVSLGERATINCKSSQSLLNRGNQKNYLTWFQQKPGQPPKLLIYWASTRESGVPDRFSGSGSGTDFTLTISSLQAEDVAVYYCQNDYTYPLTFGQGTKLEIKR
modifications: glucocorticoid drug-linker of Precursor Example 12 (maleimide, thiosuccinimide ring hydrolyzed) on cysteine thiols of reduced disulfides; n=4 per antibody; positions not given
B2: Example 28-conjugated (human), n=4 (antibody, human IgG1, kappa, L234A L235A, DAR 4, V domains shown)
VH: B1 VH
VL: B1 VL
modifications: glucocorticoid drug-linker of Precursor Example 28 (bromoacetamide) on cysteine thiols of reduced interchain disulfides; n=4 per antibody; positions not given
B3: Example 4-conjugated (human), n=4 (antibody, human IgG1, kappa, L234A L235A, DAR 4, V domains shown)
VH: B1 VH
VL: B1 VL
modifications: glucocorticoid drug-linker of Precursor Example 4 (bromoacetamide) on cysteine thiols of reduced interchain disulfides; n=4 per antibody; positions not given
B4: Example 28-conjugated (human), n=2 (antibody, human IgG1, kappa, L234A L235A, DAR 2, V domains shown)
VH: B1 VH
VL: B1 VL
modifications: glucocorticoid drug-linker of Precursor Example 28 (bromoacetamide) on cysteine thiols of reduced interchain disulfides; n=2 per antibody; positions not given
B5: Example 13-hydrolyzed (human), n=4 (antibody, human IgG1, kappa, L234A L235A, V domains shown)
VH: B1 VH
VL: B1 VL
modifications: glucocorticoid drug-linker of Precursor Example 13 (maleimide, thiosuccinimide ring hydrolyzed) on cysteine thiols of reduced disulfides; n=4 per antibody; positions not given
B6: Human anti-CD40 antibody Ab102 (antibody, human IgG1, kappa, L234A L235A, V domains shown)
VH: B1 VH
VL: B1 VL

biological target: human CD40 Transcript 1 (Myc-DDK-tagged) on HEK293 GRE reporter cells (human, UniProt P25942 21-277); assay: cell-based or functional assay
Sequence (P25942 21-277): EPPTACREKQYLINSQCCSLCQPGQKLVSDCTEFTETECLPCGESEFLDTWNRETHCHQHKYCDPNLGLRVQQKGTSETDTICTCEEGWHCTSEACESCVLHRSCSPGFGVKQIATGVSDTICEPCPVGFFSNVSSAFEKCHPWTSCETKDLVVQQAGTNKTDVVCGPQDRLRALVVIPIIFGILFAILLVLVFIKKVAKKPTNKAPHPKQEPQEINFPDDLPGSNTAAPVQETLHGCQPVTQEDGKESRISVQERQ

Row | Binder | hCD40 GRE (% max) [%] | hCD40 GRE EC50 [µg/mL]
1 | B1 | 163 | 0.19
2 | B2 | 77 | 0.53
3 | B3 | 88 | 6.57
4 | B4 | 90 | 16.5
5 | B5 | 67 | 0.29

biological target: human CD40 on LPS-stimulated human monocyte-derived dendritic cells (human, UniProt P25942 21-277); assay: cell-based or functional assay
Sequence (P25942 21-277 limits assumed): as the sequence (P25942 21-277) above

Row | Binder | IL-6 release IC50 [µg/mL] | Max Inhibition (%)
6 | B1 | 0.04 | 99.5
7 | B2 | 0.05 | 87.6
8 | B6 | 0.18 | 44.5
9 | B4 | 0.03 | 81.8
10 | B5 | 0.14 | 83.3

— US20220265842A1, “ANTI-CD40 ANTIBODY DRUG CONJUGATES” (priority 2017, published 2022)
